Experimental data as given in the supplement of paper PMC10567573.
± gives the standard deviation.

Assay: protein stability index of a GFP-peptide fusion (GPS, HEK-293T) (PSI 1-6); higher = more stable
[1] = treatment: DMSO, c terminus: a fixed tail appended
[2] = treatment: MLN4924 1 uM, 8 h, c terminus: a fixed tail appended
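Note: 24-mer peptide tiles fused after GFP, lentivirally expressed, FACS-sorted into six equal bins by GFP/DsRed ratio, decoded by Illumina sequencing, PSI is the read-weighted mean bin number.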

Sequence | protein stability index [1] | protein stability index [2] | protein stability index (treatment: DMSO, c terminus: native) | protein stability index (treatment: MLN4924 1 uM, 8 h, c terminus: native)
APRGTPDPGLGEGPALWLRSTCVY [PLEKHN1] | 2.43 ± 0.24 | 2.34 ± 0.27 |  | 
FFLRGRLDQLLRHVMNPLETLSIT [PRAME] |  | 2.1 ± 0.52 |  | 
RRGLLVSLNELMIVIGILSAYISN [SLC2A12] | 3.05 ± 0.72 | 2.67 ± 0.84 |  | 
KYAVPALEAHCVEFLTKHLRADNA [BTBD1] | 2.54 ± 0.25 | 2.74 ± 0.17 |  | 
EVYYAKKKRRAQQAPPQDSSNKKE [DYRK1B] | 4.45 ± 0.28 | 4.77 ± 0.24 |  | 
IDIVAIIPYFITLGTELAERQGNG [KCNA3] | 2.97 ± 0.38 | 3.29 ± 0.59 |  | 
QGEYPPGTSTWQFNFKFNLTEDMY [CNOT7] | 1.9 ± 0.42 | 2.15 ± 0.46 |  | 
NTEVPARNLYAYIQKLTQIETGEN [PTPRD] | 3.39 ± 0.22 | 3.37 ± 0.37 |  | 
HVGDFARDLAARWKKLVLVDRNTR [ELOA2] | 2.39 ± 0.29 | 2.86 ± 0.34 |  | 
FRCSVCSRQLLPGDEFSLREHELL [ISL2] | 2.39 ± 0.4 | 2.24 ± 0.59 |  | 
PMTPEDPSFWDCFCFTEEIPIRNG [AASDHPPT] | 3.56 ± 0.093 | 3.67 ± 0.2 |  | 
LTKHEWTEALGCDPPLSQDERTHR [ZNF8] | 4.6 ± 0.2 | 4.72 ± 0.17 |  | 
ILGGSGPVRKLYDDCSSTIVEDPQ [ESRRG] | 4.37 ± 0.3 | 4.41 ± 0.3 |  | 
LEVINLLRKHRELCDVVLVVGAKK [KLHL20] | 2.37 ± 0.48 | 2.41 ± 0.34 |  | 
LKDFTLNETVNSIFAQGAPRSSLA [ADAMTSL2] | 3.01 ± 0.17 | 3.26 ± 0.32 |  | 
AALSASMASLLEDLSHIEGLSQAP [SERTAD1] | 2.81 ± 0.22 | 2.76 ± 0.26 |  | 
FSLFGDISVLQQQGSLSNTYLSKV [FBXO33] | 2.12 ± 0.38 | 2.13 ± 0.096 |  | 
HAAAVNGDKGALQRLIVGNSALKD [INVS] | 4.29 ± 0.25 | 4.29 ± 0.32 |  | 

Sequence | protein stability index [1] | protein stability index [2] | protein stability index (treatment: DMSO, c terminus: native) | protein stability index (treatment: MLN4924 1 uM, 8 h, c terminus: native)
KGMVLDENYNNLANAVISVSGINH [CPN1] | 3.06 ± 0.086 | 3.02 ± 0.29 |  | 
QQLDLRWNNVGLLGGRALMNCLPS [LRRC45] | 2.65 ± 0.2 | 2.48 ± 0.2 |  | 
LAPPPLPLPAAAVVHVSFPEVTSA [ZBTB22] | 3.3 ± 0.3 | 3.73 ± 0.55 |  | 
EEPTERGNLEVGEPQSEPVRVLDM [FBXO34] | 5.34 ± 0.17 | 5.5 ± 0.16 |  | 
FKMLDPDGKGKINKEYIKRLLMSQ [MYL5] | 2.41 ± 0.28 | 2.63 ± 0.3 |  | 
FSQLEDKFPGQSSFLWQRGRKFLQ [TOR1AIP2] | 2.69 ± 0.22 | 2.75 ± 0.34 |  | 
SQEAGLPAGAGPSPTFPALGIGMD [SEPHS2] | 4.64 ± 0.22 | 4.65 ± 0.25 |  | 
SAGSPPELQGLPELHEECEGNHPS [NET1] | 5.46 ± 0.17 | 5.56 ± 0.16 |  | 
FENPADAKNAAKDMNGKSLHGKAI [RBMY1A1] | 4.92 ± 0.14 | 5 ± 0.23 |  | 
PSIIPQEDPSQQFLQQSLERVYSL [INTS4] | 3.58 ± 0.17 | 3.58 ± 0.28 |  | 
YQTEQSLRQLVESDINSLRRILDE [KRT33B] | 3.44 ± 0.16 | 3.61 ± 0.3 |  | 
GGAGKGRTPSAFPQTPAAPPATLG [EHMT1] | 4.6 ± 0.13 | 4.79 ± 0.059 |  | 
KQKVMTHVSNGCQLLLGVKGHAF [JUNB] |  |  | 2.16 ± 0.21 | 2.23 ± 0.21
AVLGRYVPGLLLSYLMLVTVMMWP [RETREG3] | 3.41 ± 0.13 | 3.1 ± 0.47 |  | 
ESSPSHDRSRTVSASSTGDLPKAK [SRPK2] | 5.16 ± 0.33 | 5.22 ± 0.16 |  | 
MCRLEELGLAGRCLTLTPRPATEA [HDAC6] | 2.21 ± 0.22 | 2.27 ± 0.095 |  | 
ALKLFPVQPCSAVHLLLKKVLFAL [FAM189A2] | 2.39 ± 0.17 | 2.35 ± 0.35 |  | 
DISMEIDSPENMMRHIRFLKNEVE [CCDC6] | 4.09 ± 0.39 | 3.86 ± 0.33 |  | 
